Results on two molecules are retold here after patent US20220119513A1 (ZOETIS SERVICES, published 2022).

For assay [1], the target named is TGFβ1 (R&D Systems). Description: cell-based or functional assay.
A further assay deals with T1, TGFβ2 (R&D Systems).
T1 construct: also called TGFB2
T1 sequence (P61812 303-414, species assumed, looked up): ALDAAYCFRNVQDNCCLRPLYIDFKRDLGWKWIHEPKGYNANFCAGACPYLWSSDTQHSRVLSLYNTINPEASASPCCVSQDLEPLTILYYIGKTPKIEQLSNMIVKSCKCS
Put plainly: SPR, TGFβ on chip.

A further assay deals with T2, TGFβ3 (R&D Systems) (Homo sapiens (Human), UniProt P10600 301-412, Active TGFβ3 is a disulfide-linked homodimer of this chain; one copy is given.).
T2 construct: also called TGFB3
T2 sequence: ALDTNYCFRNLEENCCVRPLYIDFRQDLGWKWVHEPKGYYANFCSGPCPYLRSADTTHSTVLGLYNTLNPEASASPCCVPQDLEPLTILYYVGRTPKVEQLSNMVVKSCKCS
Put plainly: SPR, TGFβ on chip. For orientation: SPR reads the build-up and loss of mass on a sensor chip optically.

The target in assay [2] is T3, TGFβ1 (R&D Systems).
T3 construct: also called TGFB1
Put plainly: SPR, TGFβ on chip.

The next assay concerns the target human TGFβ1 (PeproTech) (human, UniProt P01137 279-390). Put plainly: HDX-MS epitope mapping, TGFβ1 with and without mAb.
Assay [3] has as its target T3, TGFβ1 (R&D Systems). Description: SPR.

T3 sequence (P01137 279-390): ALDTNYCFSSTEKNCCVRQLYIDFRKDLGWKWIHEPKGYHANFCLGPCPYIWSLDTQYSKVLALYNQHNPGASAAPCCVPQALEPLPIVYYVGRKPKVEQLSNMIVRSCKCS
human TGFβ1 (PeproTech), sequence (P01137 279-390 limits assumed): as the sequence (P01137 279-390) above
Procedure for human TGFβ1 (PeproTech): Hydrogen Deuterium Exchange (HDX) experiments were used to determine the epitopes on TGFβ1 to which each antibody series binds. This method establishes the peptide level epitope on TGFβ1 targeted by each mAb by HDX mass spectrometry. For each mAb analysis, TGFβ1 is incubated in deuterium oxide in the presence and absence of mAb, is digested, and fragments are then analyzed and compared for hydrogen/deuterium exchange via mass spectrometry.
More specifically, the method was carried out as follows: One milligram of TGFβ1 was reconstituted in 500 μL control buffer (50 mM phosphate, 100 mM sodium chloride at pH 7.4). […] The mass spectra were recorded in MS only mode.
For pepsin digestion, 10 μg of human TGFβ1 in 80 μL control buffer (50 mM phosphate, 100 mM sodium chloride at pH 7.4) was denatured by adding 160 μL of 8 M urea, 0.85 M TCEP buffer (final pH is 4.0) and incubating the mixture for 3 min at 6° C. Then, the mixture was subjected to pepsin digestion using an-house packed pepsin column (2.1×30 mm) at 11° C. and the resultant peptides was analyzed using a UPLC-MS system comprised of a Waters Acquity UPLC coupled to a Q Exactive™ Hybrid Quadrupole-Orbitrap Mass Spectrometer (Thermo). […]

B1: 04H09 (mouse) (antibody, V domains shown)
VH: QVQLQQSGAELVKPGASVKISCKASGYAFSSSWMNWVKQRPGKGLEWIGQIYPGDGDTNYNGKFKGKATLTADKSSSTAYMQLSSLTSEDSAVYFCARHYDGSTDYWGQGTTLTVSS
VL: DIQMTQSPASLSVSVGETVTITCRASENIYSNLAWYQQKQGKSPQLLVYAATNLADGVPSRFSGSGSGTQYSLKINSLQSEDFGSYYCQHFWGTPYTFGGGTKLEIK
notes: mouse IgG, kappa, purified from hybridoma; also called mouse 04H09 monoclonal antibody; 04H09 (murine)
With B1, the “CMVIC pSmad-3, IC50” value with TGFβ1 (R&D Systems) [1] worked out at 4.66 nM. For the same molecule, the Kd – broadly, the constant that tells how readily two partners part at equilibrium – in the assay with TGFβ2 (R&D Systems) was found to be 7.13 nM; in the assay with TGFβ3 (R&D Systems) it was 1.26 nM; with TGFβ1 (R&D Systems) [2], 0.0443 nM. The binding result with human TGFβ1 (PeproTech) was “binds”.

B2: felHclb 1-1YMN (antibody, V domains shown)
VH: QVLLVQSGAEVRTPGASVKIFCKASGYIFITYYMNWVRQSPAQGLEWMGSIFPASGSTSYAQKFQGRLTLTADTSTNTAYMELSSLRSADTAMYYCARGDGNYALDAMDYWGQGTSVTVSS
VL: EIQMTQSPSSLSASPGDRVTITCRASESVDSYGNSFMHWYQQKPGKVPKLLIYLASNLESGVPSRFSGSGSGTDFTLTISSLEPEDAATYYCQQNNEDPLTFGAGT
notes: also called felHclbH1-1YMN/felHclbK1-1; felHcLb-H1-1MN
In the assay with TGFβ1 (R&D Systems) [3], B2 came in with a Kd of 263000 nM.
